Our source for the IC50, Ki and Kd values is patent US20260185163A1, “MEN1 MUTATIONS AND USES THEREOF” (DANA-FARBER CANCER INSTITUTE, INC., priority 2022, published 2026).

For one assay, the target named is WT (UniProt O00255). The assay is described as follows: fluorescence polarization competition.
The target of a further assay is M327I (UniProt O00255). The assay is described as follows: fluorescence polarization competition. A general note: In fluorescence polarisation assays a small probe gives low polarisation when free and higher when bound to something large.
Another assay addresses T349M (UniProt O00255). The assay is described as follows: fluorescence polarization competition.
The target in assay [1] is StrepII-Avi-TEV-Menin T349M (recombinant mutant human Menin) (UniProt O00255). The assay is described as follows: fluorescence polarization.
Assay [2] concerns the target StrepII-Avi-TEV-Menin (wild-type human Menin, recombinant, E. coli) (UniProt O00255). The assay is described as follows: fluorescence polarization.
For assay [3], the target named is StrepII-Avi-TEV-Menin M327I (recombinant mutant human Menin) (UniProt O00255). The assay is described as follows: fluorescence polarization.

The term IC50 denotes the concentration that gives 50% inhibition. A low value points to greater potency. Broadly, the Ki is a measure of affinity in units of concentration, obtained from inhibition or displacement. A low value points to higher affinity. With MLL1 Peptide, the figures for the IC50 with WT, in the assay with M327I and with T349M were 26.1 nM, 20.3 nM and 101 nM, respectively. For the same substance, the Ki with WT was 9.17 nM; with M327I it was 7.78 nM; with T349M, 51.4 nM.

By Kd is commonly meant a measure of binding affinity in units of concentration. “N-terminally FITC-labelled MLL2(15-48) peptide”: the Kd in assay [1] amounted to 3.7 nM; in assay [2], 1.78 nM; in assay [3], 2.56 nM.
